Target: hamster integrin αv subunit, endogenous in CHO cells (Chinese hamster (endogenous in CHO))
Assay: flow cytometry on cells; CHO cells transiently transfected with the β3 plasmid alone, harvested after 48 h; the chimeric complex of human β3 and hamster αv on the cell surface was stained with FITC anti-αvβ3 (LM609; Figure 2C) or with the monoclonal antibody to β3 (Figure 2D); read-out is the percentage of positive cells

Substance: integrin β3 subunit with the Pro189Ser substitution (P163S in the mature protein) (from UniProt P05106 27-788) (receptor)
- percent of the level of the WTβ3-hamster αv complex (LM609 staining): 78%
